In patent US12378324B2, “Anti superoxide dismutase 1 (SOD1) antibodies and use thereof” (B. G. NEGEV TECHNOLOGIES AND APPLICATIONS LTD., AT …, priority 2018, dated 2025):

How the values were obtained:
Format in all cases: binding
[1] = system: misfolded SOD1 variants (apo-SOD1^WT, holo-SOD1^WT, apo-SOD1^G93A, apo-SOD1^G85R); assay: ELISA of secreted scFv-Ab (supernatant of transfected HEK 293 cells) on SOD1 variants; conditions: FIG. 2, HEK 293 supernatant, anti-c-myc detection
Description: Binding of secreted scFv-Ab (as supernatant of HEK 293 cells transfected with the vector expressing scFv-Ab) to SOD1 variant (apo-SOD1^WT, holo-SOD1^WT, apo-SOD1^G93A, and apo-SOD1^G85R), was quantified by enzyme-linked immunosorbent assay (ELISA).
The inventors have constructed a single-chain fragment variable antibody (scFv-mAb), representing a hybrid protein that comprises both heavy and light chain variable Ig regions of the anti-β6/β7-loop mAb connected by a short flexible linker (linker length 15-20 amino acids). The advantages of single-chain antibody are its small size, low immunogenicity and increased half-life (due to the reduced clearance via Fc-mediated microglia phagocytosis), and the ability to be used in a gene delivery system, such as recombinant adeno-associated virus, AAV6, for intra- or extracellular expression. AAV vectors have a broad cell type tropism, provide stable and safe gene expression and minimize immune response. […] Recent advances in AAV vector engineering enabled these vectors (AAV9) to be injected directly IV to obtain efficient CNS expression DNA sequences encoding the scFv-Ab of the invention were further optimized in terms of the codon usage for expression in mammalian cells (e.g., murine). […]

holo-SOD1^WT = holo-SOD1^WT (Homo sapiens, UniProt P00441); assay: ELISA of hybridoma supernatants with SOD1 variants as coating antigens; conditions: apo-SOD1^WT saturated with Cu2+ and Zn2+ by dialysis
Description: (§1) FIGS. 1A-1B are an image and a graph showing (1A) the surface pocket shaped by the two β6/β7 loops (arrows) in the intact SOD1^WT dimer, and (1B) the results of enzyme linked immunosorbent assay (ELISA) of supernatants of several hybridoma clones expressing anti-β6/β7-loop monoclonal antibody (mAb) using SOD1 variants as coating antigens. NC—negative control. WT—wild type; apo—WT in the absence of metals (Cu^2+ and Zn^2+); holo—WT in the presence of metals (Cu^2+ and Zn^2+); G93A—Glycine at position 93 was substituted to Alanine; G85R—Glycine at position 85 was substituted to Arginine; antigen peptide—peptide used to produce the disclosed mAb.
(§2) The loss of stabilizing metals, especially Zn^2+ is considered as the primary event which triggers the noxious structural transformation of SOD1, ultimately resulting in amyloid aggregation. Therefore, it is possible that the exposure of the β6/β7 loop epitope represents an early manifestation of the SOD1 noxious misfolding, and it is a common feature for both SOD1^WT and fALS SOD1^MUT. This early β6/β7 loop epitope is fundamentally different from the late epitopes of misfolded SOD1 such as those exposed on the dimer interface upon SOD1 monomerization; they correspond to the advanced stages of SOD1 misfolding and are apparently irreversible.

[2] = system: misfolded familial ALS (fALS) mutants of SOD1 (SOD1^G93A and SOD1^G85R); assay: as above; conditions: FIG. 1B, SOD1^G93A and SOD1^G85R vs intact SOD1^WT
Description: as §1, §2

apo-SOD1^WT = apo-SOD1^WT (Homo sapiens, UniProt P00441); assay: as above; conditions: WT in the absence of Cu2+ and Zn2+, similar to SOD1^G93A and SOD1^G85R
Description: as §1, §2

Sequence of apo-SOD1^WT (P00441 2-154 limits assumed): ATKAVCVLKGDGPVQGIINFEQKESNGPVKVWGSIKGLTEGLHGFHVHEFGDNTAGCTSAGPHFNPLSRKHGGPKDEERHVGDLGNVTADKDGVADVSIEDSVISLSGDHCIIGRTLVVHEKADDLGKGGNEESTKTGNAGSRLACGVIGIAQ
Sequence of holo-SOD1^WT (P00441 2-154 limits assumed): as above

Row | mAb binding to holo-SOD1^WT (holo-SOD1^WT) | Molecule | binding of scFv-Ab to SOD1 variants [1] | discrimination between the intact SOD1^WT and misfolded fALS mutants of SOD1 [2] | recognition of metal-free apo-SOD1^WT (apo-SOD1^WT)
1 |  | scFv-Ab: single-chain fragment variable antibody: heavy and light chain variable regions of the anti-β6/β7-loop mAb joined by a flexible linker (protein, left off: small tags and cut ends, single-chain fragment variable antibody: heavy and light chain variable regions of the anti-β6/β7-loop mAb joined by a flexible linker) scFv: QIQLVQSGPELKKPGESVSISCKASGYTFTDSAIHWVKQAPGKGLKYMGWINTYTGKPTYADDFKGRFVFSLEASASTAKLQISNLKSEDTATFFCARSVYSYDGTFYRYFLDAWGQGASVTVSSGGGGSGGGGSGGGGSDTVLTQSPALAVSPGEKVTISCRASESVSKHIHWFQQKSGQQPTLLIYLASSLESGVPARFSGSGSGTDFTLTIDPVEADDTATYYCQQSWNDPWTFGGGTKLELKGGGGS | selectively recognizes misfolded SOD1 variants |  | 
2 | completely abolished mAbs binding | 6D12B10: rat monoclonal antibody against the β6/β7 loop of SOD1, raised with KLH-conjugated SE-21 peptide (antibody, V domains shown) VH: QIQLVQSGPELKKPGESVSISCKASGYTFTDSAIHWVKQAPGKGLKYMGWINTYTGKPTYADDFKGRFVFSLEASASTAKLQISNLKSEDTATFFCARSVYSYDGTFYRYFLDAWGQGASVTVSS VL: DTVLTQSPALAVSPGEKVTISCRASESVSKHIHWFQQKSGQQPTLLIYLASSLESGVPARFSGSGSGTDFTLTIDPVEADDTATYYCQQSWNDPWTFGGGTKLELK |  | complete discrimination | recognized metal-free apo-SOD1^WT as misfolded protein
